Experimental data from US20100092465A1, “TREATMENT OF GRAFT-VERSUS-HOST DISEASE” (priority 2006, published 2010).
Where “and” joins values, the source holds several entries; their conditions need not be identical. Equal entries are not always repeated.

What was measured:
[1] = target: T1, muIL-27 (Mus musculus, UniProt O35228+Q8K3I6); test: Phospho-STAT3 neutralization assay, total human PBMCs, muIL-27; assay type: cell-based; conditions: ligand muIL-27 at EC90
T1 sequence (O35228 19-228): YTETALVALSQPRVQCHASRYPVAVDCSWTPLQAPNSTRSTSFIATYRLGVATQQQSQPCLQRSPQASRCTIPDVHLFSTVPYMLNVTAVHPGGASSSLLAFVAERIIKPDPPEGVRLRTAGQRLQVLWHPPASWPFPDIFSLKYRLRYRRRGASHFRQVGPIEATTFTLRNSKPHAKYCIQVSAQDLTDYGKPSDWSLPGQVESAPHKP
T1 sequence (Q8K3I6 29-234): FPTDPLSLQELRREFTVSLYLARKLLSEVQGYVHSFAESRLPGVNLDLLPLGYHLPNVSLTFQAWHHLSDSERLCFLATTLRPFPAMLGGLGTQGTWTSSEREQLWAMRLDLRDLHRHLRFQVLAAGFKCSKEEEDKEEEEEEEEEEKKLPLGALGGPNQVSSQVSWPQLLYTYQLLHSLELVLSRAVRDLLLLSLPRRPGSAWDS
Source text: Whole mouse spleens were harvested from C57 B1/6 mice and washed two times with 1×PBS before being plated out at 2×10^5 cells/well in assay media (RPMI 1640 plus 10% fetal bovine serum) in 96-well, round-bottom tissue culture plates. Total human PBMC (peripheral blood mononuclear cells) were thawed from a frozen vial collected from a leukapherisis donation and washed two times with 1×PBS before being plated out at 10^6 cells/well in assay media in 96-well, round-bottom tissue culture plates. […] Following pre-incubation, treatments were added to the plates containing the cells and incubated together at 37° C. for 15 minutes.
Following incubation, cells were washed with ice-cold wash buffer (BIO-PLEX Cell Lysis Kit, BIO-RAD Laboratories, Hercules, Calif.) and put on ice to stop the reaction according to manufacturer's instructions. […]
Capture beads (BIO-PLEX Phospho-Stat3 Assay, BIO-RAD Laboratories) were combined with 50 μL of 1:1 diluted lysates and added to a 96-well filter plate according to manufacture's instructions (BIO-PLEX Phosphoprotein Detection Kit, BIO-RAD Laboratories). […] After the final wash, beads were resuspended in 125 μL/well of bead suspension buffer, shaken for 30 seconds, and read on an array reader (BIO-PLEX, BIO-RAD Laboratories) according to the manufacture's instructions. Data were analyzed using analytical softward (BIO-PLEX MANAGER 3.0, BIO-RAD Laboratories). […]

[2] = target: T2, mouse IL-27 (Mus musculus, UniProt O35228+Q8K3I6); test: IL-27 inhibition of IL-2 production neutralized by IL-27RA Fc; assay type: cell-based
T2 sequence (O35228+Q8K3I6 with tags, fused parts or gaps): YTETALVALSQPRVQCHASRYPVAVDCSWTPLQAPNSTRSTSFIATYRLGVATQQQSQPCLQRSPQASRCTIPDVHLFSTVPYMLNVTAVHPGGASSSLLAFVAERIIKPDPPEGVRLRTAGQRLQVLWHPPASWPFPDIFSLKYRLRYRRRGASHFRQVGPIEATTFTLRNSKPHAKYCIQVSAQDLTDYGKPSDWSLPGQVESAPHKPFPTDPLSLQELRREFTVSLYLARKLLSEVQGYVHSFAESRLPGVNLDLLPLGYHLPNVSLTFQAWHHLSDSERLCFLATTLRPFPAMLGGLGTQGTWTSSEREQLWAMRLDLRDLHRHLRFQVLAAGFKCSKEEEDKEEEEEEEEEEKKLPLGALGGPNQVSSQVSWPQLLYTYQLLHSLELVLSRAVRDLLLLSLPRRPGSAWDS
Experimental: For testing of the soluble receptor, single-chain mouse IL-27 (10 ng/ml) was preincubated for 30 minutes at 37 degrees C. with either IL27RAm(mFc1) (10.0 and 5.0 .micro.g/ml), IL27RA-Fc5, mouse Fc1 protein (10.0 and 5.0 .micro.g/ml), human Fc5 protein (10.0 and 5.0 .micro.g/ml), or no recombinant protein in wells of the anti-CD3 coated plates. 4×10^5 CD4^+ CD62L high cells were added to the wells. Duplicate plates were set up for all experimental conditions. The plates were then cultured at 37 degrees for up to 72 hours. Cell supernatants were collected from one set of plates at 48 hours and from the duplicate set of plates at 72 hours. The supernatants were stored frozen at −80° C.

IC50 [1]: 2.97 nM | IL-2 concentration ([2]; 48 hr, protein conc. 5 (µg/ml; Fc controls in molar equiv.) + IL-27 10 ng/ml): 5784.11 pg/mL | IL-2 concentration ([2]; 48 hr, protein conc. 10 (µg/ml; Fc controls in molar equiv.) + IL-27 10 ng/ml, listed as hIL-27RA): 5774.94 pg/mL and 5333.6 pg/mL | IL-2 concentration ([2]; 72 hr, protein conc. 5 (µg/ml; Fc controls in molar equiv.) + IL-27 10 ng/ml): 1869.62 pg/mL | IL-2 concentration ([2]; 72 hr, protein conc. 10 (µg/ml; Fc controls in molar equiv.) + IL-27 10 ng/ml, listed as hIL-27RA): 28607.63 pg/mL and 17481.17 pg/mL | inhibition (partial block) of the ability of mouse IL-27 to inhibit IL-2 production ([2]; naïve CD4 T cells): ~50%
Substance: human IL-27RA-Fc5: human IL27RA extracellular domain (amino acids 1 to 512 of SEQ ID NO:5) fused to Fc5, effector minus human gamma1 Fc; SEQ ID NO:3
